# Reference: patent US20250076311A1 (Chugai, published 2025)
# T1: cynomolgus monkey FcγRIIa3 extracellular domain with C-terminal His-tag (cynomolgus monkey)
# T1 construct: also called cyno FcgRIIa3; cynoFcγRIIa3; not shown: His-tag added to the C-terminus
# T1 chain: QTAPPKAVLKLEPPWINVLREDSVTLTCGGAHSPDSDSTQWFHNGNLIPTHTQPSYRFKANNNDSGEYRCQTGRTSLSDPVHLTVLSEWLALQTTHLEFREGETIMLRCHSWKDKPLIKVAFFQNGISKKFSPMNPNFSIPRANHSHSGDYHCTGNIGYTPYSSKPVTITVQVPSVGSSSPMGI
# T2: human FcγRIIaH extracellular domain with C-terminal His-tag (human, UniProt P12318 34-217)
# T2 construct: also called human FcgRIIaH; FcγRIIa type H; not shown: His-tag added to the C-terminus
# T2 sequence: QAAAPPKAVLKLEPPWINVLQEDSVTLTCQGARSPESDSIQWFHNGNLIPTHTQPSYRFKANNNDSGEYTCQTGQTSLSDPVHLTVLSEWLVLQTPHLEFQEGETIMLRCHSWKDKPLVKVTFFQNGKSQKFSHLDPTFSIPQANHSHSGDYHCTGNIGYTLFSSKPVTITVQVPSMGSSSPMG
# T3: cynomolgus monkey FcγRIIa3 extracellular domain with C-terminal His-tag (cynomolgus monkey)
# T3 construct: also called cyno FcgRIIa3; cynoFcγRIIa3; not shown: His-tag added to C-terminus
# T3 chain: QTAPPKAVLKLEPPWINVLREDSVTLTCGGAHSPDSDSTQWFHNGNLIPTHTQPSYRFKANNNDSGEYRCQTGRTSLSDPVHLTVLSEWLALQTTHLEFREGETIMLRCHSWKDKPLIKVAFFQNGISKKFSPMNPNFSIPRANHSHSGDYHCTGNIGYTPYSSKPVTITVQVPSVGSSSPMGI
# T4: cynomolgus monkey FcγRIIb extracellular domain with C-terminal His-tag (cynomolgus monkey)
# T4 construct: also called cyno FcgRIIb; cynoFcγRIIb; not shown: His-tag added to C-terminus
# T4 chain: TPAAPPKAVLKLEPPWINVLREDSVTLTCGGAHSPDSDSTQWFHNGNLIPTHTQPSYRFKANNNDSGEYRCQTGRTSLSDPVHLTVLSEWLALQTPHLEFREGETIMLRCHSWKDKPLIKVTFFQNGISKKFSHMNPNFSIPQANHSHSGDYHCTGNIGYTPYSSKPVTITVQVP
# T5: human FcγRIIb extracellular domain with C-terminal His-tag (human, UniProt P31994 43-217)
# T5 construct: also called human FcgRIIb; not shown: His-tag added to C-terminus
# T5 sequence: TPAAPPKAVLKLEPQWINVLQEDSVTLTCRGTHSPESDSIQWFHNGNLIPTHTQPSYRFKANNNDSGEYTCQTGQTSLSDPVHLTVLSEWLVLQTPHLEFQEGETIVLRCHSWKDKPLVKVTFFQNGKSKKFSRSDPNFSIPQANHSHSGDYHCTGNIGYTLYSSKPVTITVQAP
# Legend:
# [1] = biological target: T6, cynomolgus monkey FcγRIIIaS extracellular domain with C-terminal His-tag (cynomolgus monkey, UniProt A3RFZ7 21-206 (rhesus entry)); experiment: SPR (BIACORE); KD of SG1 / KD of variant
# T6 construct: also called cyno FcgRIIIaS; cynoFcγRIIIaS; not shown: His-tag added to the C-terminus
# Protocol: The kinetic analysis of interactions between these antibodies and FcγR was carried out using BIACORE® T200 or BIACORE® 4000 (GE Healthcare). HBS-EP+ (GE Healthcare) was used as the running buffer, and the measurement temperature was set to 25° C. […] After the measurement, the antibody captured on the chip was washed off by allowing reaction with 10 mM glycine-HCl, pH1.5 and 25 mM NaOH so that the chip was regenerated and used repeatedly. The sensorgrams obtained as measurement results were analyzed by the 1:1 Langmuir binding model using the BIACORE® Evaluation Software to calculate the binding rate constant ka (L/mol/s) and dissociation rate constant kd (1/s), and the dissociation constant KD (mol/L) was calculated from these values. […] Regarding such interactions, KD values were calculated using the following 1:1 binding model described in BIACORE® T100 Software Handbook BR1006-48 Edition AE.
# Target sequence in this assay (A3RFZ7 21-206): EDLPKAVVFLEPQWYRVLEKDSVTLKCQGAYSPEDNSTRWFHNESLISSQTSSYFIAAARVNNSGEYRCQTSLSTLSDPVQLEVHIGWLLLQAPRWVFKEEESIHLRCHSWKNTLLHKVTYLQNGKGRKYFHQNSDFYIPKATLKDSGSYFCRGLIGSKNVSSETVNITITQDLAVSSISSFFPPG
# [2] = biological target: T1, cynomolgus monkey FcγRIIa3 …; experiment: SPR (BIACORE), antibody captured, FcgR analyte
# [3] = biological target: T6, cynomolgus monkey FcγRIIIaS …; experiment: SPR (BIACORE), antibody captured, FcgR analyte
# T6 sequence (A3RFZ7 21-206): as above
# [4] = biological target: T2, human FcγRIIaH extracellular domain …; experiment: SPR (BIACORE), antibody captured, FcgR analyte
# [5] = biological target: T3, cynomolgus monkey FcγRIIa3 …; experiment: SPR Biacore, antibody captured, FcgR analyte
# [6] = biological target: T4, cynomolgus monkey FcγRIIb extracellular …; experiment: SPR Biacore, antibody captured, FcgR analyte
# [7] = biological target: T7, cynomolgus monkey FcγRIIIaS extracellular domain with C-terminal His-tag (cynomolgus monkey, UniProt A3RFZ7 21-206 (rhesus entry)); experiment: SPR Biacore, antibody captured, FcgR analyte
# T7 construct: also called cyno FcgRIIIaS; cynoFcγRIIIaS; not shown: His-tag added to C-terminus
# Target sequence in this assay (A3RFZ7 21-206): as above
# [8] = biological target: T5, human FcγRIIb extracellular domain with …; experiment: SPR Biacore, antibody captured, FcgR analyte
Binder,KD fold (SG1 = 1) [1] [fold],Kd [2] [nM],Kd [3] [nM],Kd [4] [nM],KD fold (SG1 = 1) [5] [fold],KD fold (SG1 = 1) [6] [fold],KD fold (SG1 = 1) [7] [fold],KD fold (SG1 = 1) [8] [fold]
"M103205H795-MY197/M103202L889-SK1 (antibody, human IgG1, kappa, name in EU numbering, Fc variant of MS1032LO06-SG1; positions in EU numbering) heavy: QVTLKESGPVLVKPTETLTLTCTVSGIDLSHDDISWVRQAPGKGLEWVGIISYAGSTYYASWAKGRLTISKDTSKNQVVLTMTNMDPVDTATYYCARGVPAYSHGGDLWGQGTLVTVSSASTKGPSVFPLAPSSKSTSGGTAALGCLVKDYFPEPVTVSWNSGALTSGVHTFPAVLQSSGLYSLSSVVTVPSSSLGTQTYICNVNHKPSNTKVDKKVEPKSCDKTHTCPPCPAPELLNGPSVFLFPPKPKDTLMISRTPEVTCVVVDVSDEDPEVKFNWYVDGVEVHNAKTKPREEQYNSTYRVVSVLTVLHQDWLNGKEYKCKVSNKALPKPIEKTISKAKGQPREPQVYTLPPSREEMTKNQVSLTCLVKGFYPSDIAVEWESNGQPENNYKTTPMVLDSDGSFFLYSKLTVDKSRWQQGNVFSCSVMHEALHNHYTQKSLSLSP light: DIVMTQSPATLSLSPGERATLSCTSSQSVYHANWLSWFQQKPGQPPKLLIYWASTLAYGVPSRFSGSGSGTDFTLTISSLQPEDAATYYCAGGYGGGRYAFGQGTKVEIKRTVAAPSVFIFPPSDEQLKSGTASVVCLLNNFYPREAKVQWKVDNALQSGNSQESVTEQDSKDSTYSLSSTLTLSKADYEKHKVYACEVTHQGLSSPVTKSFNRGEC",0.17,1400,2100,160,,,,
"M103205H795-MY288/M103202L889-SK1 (antibody, human IgG1, kappa, name in EU numbering, substitutions in EU numbering, introduced into M103205H795-SG1) heavy: not shown light: DIVMTQSPATLSLSPGERATLSCTSSQSVYHANWLSWFQQKPGQPPKLLIYWASTLAYGVPSRFSGSGSGTDFTLTISSLQPEDAATYYCAGGYGGGRYAFGQGTKVEIKRTVAAPSVFIFPPSDEQLKSGTASVVCLLNNFYPREAKVQWKVDNALQSGNSQESVTEQDSKDSTYSLSSTLTLSKADYEKHKVYACEVTHQGLSSPVTKSFNRGEC",,,,,1.5,1.5,0.03,0.5
"M103205H795-MY204/M103202L889-SK1 (antibody, human IgG1, kappa, name in EU numbering, substitutions in EU numbering, introduced into M103205H795-SG1) heavy: QVTLKESGPVLVKPTETLTLTCTVSGIDLSHDDISWVRQAPGKGLEWVGIISYAGSTYYASWAKGRLTISKDTSKNQVVLTMTNMDPVDTATYYCARGVPAYSHGGDLWGQGTLVTVSSASTKGPSVFPLAPSSKSTSGGTAALGCLVKDYFPEPVTVSWNSGALTSGVHTFPAVLQSSGLYSLSSVVTVPSSSLGTQTYICNVNHKPSNTKVDKKVEPKSCDKTHTCPPCPAPELLNGPVVFLFPPKPKDTLMISRTPEVTCVVVDVSEEDPEVKFNWYVDGVEVHNAKTKPREELYNSTYRVVSVLTVLHQDWLNGKEYKCKVSNKALPKPIEKTISKAKGQPREPQVYTLPPSREEMTKNQVSLTCLVKGFYPSDIAVEWESNGQPENNYKTTPPVLDSDGSFFLYSKLTVDKSRWQQGNVFSCSVMHEALHNHYTQKSLSLSP light: DIVMTQSPATLSLSPGERATLSCTSSQSVYHANWLSWFQQKPGQPPKLLIYWASTLAYGVPSRFSGSGSGTDFTLTISSLQPEDAATYYCAGGYGGGRYAFGQGTKVEIKRTVAAPSVFIFPPSDEQLKSGTASVVCLLNNFYPREAKVQWKVDNALQSGNSQESVTEQDSKDSTYSLSSTLTLSKADYEKHKVYACEVTHQGLSSPVTKSFNRGEC",,,,,3.3,2.2,0.1,
"M103205H795-MY202/M103202L889-SK1 (antibody, human IgG1, kappa, name in EU numbering, Fc variant of MS1032LO06-SG1; positions in EU numbering) heavy: QVTLKESGPVLVKPTETLTLTCTVSGIDLSHDDISWVRQAPGKGLEWVGIISYAGSTYYASWAKGRLTISKDTSKNQVVLTMTNMDPVDTATYYCARGVPAYSHGGDLWGQGTLVTVSSASTKGPSVFPLAPSSKSTSGGTAALGCLVKDYFPEPVTVSWNSGALTSGVHTFPAVLQSSGLYSLSSVVTVPSSSLGTQTYICNVNHKPSNTKVDKKVEPKSCDKTHTCPPCPAPELLNGPVVFLFPPKPKDTLMISRTPEVTCVVVDVSDEDPEVKFNWYVDGVEVHNAKTKPREEQYNSTYRVVSVLTVLHQDWLNGKEYKCKVSNKALPKPIEKTISKAKGQPREPQVYTLPPSREEMTKNQVSLTCLVKGFYPSDIAVEWESNGQPENNYKTTPPVLDSDGSFFLYSKLTVDKSRWQQGNVFSCSVMHEALHNHYTQKSLSLSP light: DIVMTQSPATLSLSPGERATLSCTSSQSVYHANWLSWFQQKPGQPPKLLIYWASTLAYGVPSRFSGSGSGTDFTLTISSLQPEDAATYYCAGGYGGGRYAFGQGTKVEIKRTVAAPSVFIFPPSDEQLKSGTASVVCLLNNFYPREAKVQWKVDNALQSGNSQESVTEQDSKDSTYSLSSTLTLSKADYEKHKVYACEVTHQGLSSPVTKSFNRGEC",,2200,4000,1200,,,,
